PMC10135718, “Inhibitory Peptide of Soluble Guanylyl Cyclase/Trx1 Interface Blunts the Dual Redox Signaling Functions of the Complex” (Antioxidants, 2023)

B1: oxidized Trx1 (oTrx1) (enzyme, human, UniProt P10599 1-105, looked up)
chain: MVKQIESKTAFQEALDAAGDKLVVVDFSATWCGPCKMIKPFFHSLSEKYSNVIFLEVDVDDCQDVASECEVKCMPTFQFFKKGQKVGEFSGANKEKLEATINELV
modifications: thiols oxidized with 100 μM diamide (the cysteine engaged in the homodimer is not identified)
notes: Thioredoxin 1, human; same protein as m2, oxidized; mostly a dimer on a non-reducing gel; also used here for the endogenous Trx1 of Jurkat T cells in two functional rows; also called oxidized thioredoxin; source: bought: Fitzgerald industries (30R-2985); treated with 100 μM diamide on ice for 30 min, excess removed
B2: recombinant human Thioredoxin 1 (Trx1), untreated (enzyme, UniProt P10599 1-105, looked up)
chain: B1 chain
notes: Thioredoxin 1, human; also called untreated Trx1; source: bought: Fitzgerald industries (30R-2985)
B3: oxidized GC1 (oGC1) (complex, human)
chain 1: MFCTKLKDLKITGECPFSLLAPGQVPNESSEEAAGSSESCKATVPICQDIPEKNIQESLPQRKTSRSRVYLHTLAESICKLIFPEFERLNVALQRTLAKHKIKESRKSLEREDFEKTIAEQAVAAGVPVEVIKESLGEEVFKICYEEDENILGVVGGTLKDFLNSFSTLLKQSSHCQEAGKRGRLEDASILCLDKEDDFLHVYYFFPKRTTSLILPGIIKAAAHVLYETEVEVSLMPPCFHNDCSEFVNQPYLLYSVHMKSTKPSLSPSKPQSSLVIPTSLFCKTFPFHFMFDKDMTILQFGNGIRRLMNRRDFQGKPNFEEYFEILTPKINQTFSGIMTMLNMQFVVRVRRWDNSVKKSSRVMDLKGQMIYIVESSAILFLGSPCVDRLEDFTGRGLYLSDIPIHNALRDVVLIGEQARAQDGLKKRLGKLKATLEQAHQALEEEKKKTVDLLCSIFPCEVAQQLWQGQVVQAKKFSNVTMLFSDIVGFTAICSQCSPLQVITMLNALYTRFDQQCGELDVYKVETIGDAYCVAGGLHKESDTHAVQIALMALKMMELSDEVMSPHGEPIKMRIGLHSGSVFAGVVGVKMPRYCLFGNNVTLANKFESCSVPRKINVSPTTYRLLKDCPGFVFTPRSREELPPNFPSEIPGICHFLDAYQQGTNSKPCFQKKDVEDGNANFLGKASGID
chain 2: MYGFVNHALELLVIRNYGPEVWEDIKKEAQLDEEGQFLVRIIYDDSKTYDLVAAASKVLNLNAGEILQMFGKMFFVFCQESGYDTILRVLGSNVREFLQNLDALHDHLATIYPGMRAPSFRCTDAEKGKGLILHYYSEREGLQDIVIGIIKTVAQQIHGTEIDMKVIQQRNEECDHTQFLIEEKESKEEDFYEDLDRFEENGTQESRISPYTFCKAFPFHIIFDRDLVVTQCGNAIYRVLPQLQPGNCSLLSVFSLVRPHIDISFHGILSHINTVFVLRSKEGLLDVEKLECEDELTGTEISCLRLKGQMIYLPEADSILFLCSPSVMNLDDLTRRGLYLSDIPLHDATRDLVLLGEQFREEYKLTQELEILTDRLQLTLRALEDEKKKTDTLLYSVLPPSVANELRHKRPVPAKRYDNVTILFSGIVGFNAFCSKHASGEGAMKIVNLLNDLYTRFDTLTDSRKNPFVYKVETVGDKYMTVSGLPEPCIHHARSICHLALDMMEIAGQVQVDGESVQITIGIHTGEVVTGVIGQRMPRYCLFGNTVNLTSRTETTGEKGKINVSEYTYRCLMSPENSDPQFHLEHRGPVSMKGKKEPMQVWFLSRKNTGTEETKQDDD
modifications: thiols oxidized with 100 μM diamide (cysteines not mapped) | thiols oxidized with 100 μM diamide (cysteines not mapped)
notes: alpha subunit of soluble guanylyl cyclase GC1, human; beta subunit of soluble guanylyl cyclase GC1, human; same protein as m1, oxidized; runs as high molecular weight multimers on a non-reducing gel; also called multimeric oxidized GC1; source: bought: Enzo life sciences (ALX-201-177-C010); treated with 100 μM diamide on ice for 30 min, excess removed
B4: purified recombinant human soluble guanylyl cyclase (GC1), untreated (complex)
chain 1: B3 chain 1
chain 2: B3 chain 2
notes: alpha subunit of soluble guanylyl cyclase GC1, human; beta subunit of soluble guanylyl cyclase GC1, human; alpha/beta heterodimer as bought; also called untreated GC1; source: bought: Enzo life sciences (ALX-201-177-C010), purified recombinant

Biological target: the molecule itself
Test: non-reducing SDS-PAGE with Western blot; purified GC1 or Trx1, untreated, reduced (10 mM DTT) or oxidized (100 μM diamide), excess reagent removed; 12% SDS-PAGE under non-reducing conditions, blots probed with anti-GC1 α and β or anti-Trx1

| Protein | binding result |
| --- | --- |
| B1 | binds |
| B2 | binds |
| B3 | binds |
| B4 | binds |
